Here are results for 3 molecules from PMC10666025, “In pursuit of degenerative brain disease diagnosis: Dementia biomarkers detected by DNA aptamer-attached portable graphene biosensor”.

Data set [1] concerns the target Amyloid-beta 1-42 (synthetic) (UniProt P05067 672-713). The experiment in a line: GFET Dirac shift; LoD 10 fM (not a Kd); GFET with immobilised aptamer; protein in 0.1x PBS (LoD series) or PBS; aptamer dissolved in 1x PBS + 0.5 mM MgCl2; pH and temperature of binding not given.
Data set [2] addresses Amyloid-beta 1-42, brain-derived (human (AD patient brain), UniProt P05067 672-713). The experiment in a line: GFET Dirac shift; detected to ~10 fM, dose-dependent; GFET with immobilised aptamer; protein in 0.1x PBS (LoD series) or PBS; aptamer dissolved in 1x PBS + 0.5 mM MgCl2; pH and temperature of binding not given. The settings on record: protein: native.
The target in data set [3] is alpha-synuclein, brain-derived (human (PD patient brain), UniProt P37840 1-140). Nature of the data set: GFET Dirac shift; detected to 10-100 nM as printed; GFET with immobilised aptamer; protein in 0.1x PBS (LoD series) or PBS; aptamer dissolved in 1x PBS + 0.5 mM MgCl2; pH and temperature of binding not given.
For data set [4], the target named is alpha-synuclein (synthetic/commercial) (UniProt P37840 1-140). Nature of the data set: GFET Dirac shift; LoD 10-100 fM (not a Kd); GFET with immobilised aptamer; protein in 0.1x PBS (LoD series) or PBS; aptamer dissolved in 1x PBS + 0.5 mM MgCl2; pH and temperature of binding not given.
A further data set concerns the target Tau, brain-derived (human (AD patient brain), UniProt P10636-8 1-441). Nature of the data set: GFET Dirac shift; detected to 10-100 fM; GFET with immobilised aptamer; protein in 0.1x PBS (LoD series) or PBS; aptamer dissolved in 1x PBS + 0.5 mM MgCl2; pH and temperature of binding not given. The settings on record: protein: native.
For data set [5], the target named is Tau441 (synthetic/commercial) (human, UniProt P10636-8 1-441). The experiment in a line: GFET Dirac shift; LoD 1-10 pM in abstract, ~100 fM in Results (not a Kd); GFET with immobilised aptamer; protein in 0.1x PBS (LoD series) or PBS; aptamer dissolved in 1x PBS + 0.5 mM MgCl2; pH and temperature of binding not given.
Chain of Tau441 (synthetic/commercial) (P10636 other isoform, or with tags, fused parts or gaps): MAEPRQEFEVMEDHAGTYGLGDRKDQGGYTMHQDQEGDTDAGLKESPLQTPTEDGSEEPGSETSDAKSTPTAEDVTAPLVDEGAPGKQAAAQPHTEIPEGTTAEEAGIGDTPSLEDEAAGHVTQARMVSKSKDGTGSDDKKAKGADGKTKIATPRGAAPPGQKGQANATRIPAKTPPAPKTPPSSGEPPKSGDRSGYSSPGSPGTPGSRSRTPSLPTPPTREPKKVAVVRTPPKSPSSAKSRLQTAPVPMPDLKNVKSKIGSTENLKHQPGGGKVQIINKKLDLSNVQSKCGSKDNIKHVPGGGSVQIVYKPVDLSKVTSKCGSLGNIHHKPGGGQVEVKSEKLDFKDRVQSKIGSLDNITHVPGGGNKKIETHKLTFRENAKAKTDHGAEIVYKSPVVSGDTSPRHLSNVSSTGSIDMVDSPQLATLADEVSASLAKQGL

Chain of Amyloid-beta 1-42, brain-derived (P05067 672-713): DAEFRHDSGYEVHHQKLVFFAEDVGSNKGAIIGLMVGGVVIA
Chain of Amyloid-beta 1-42 (synthetic) (P05067 672-713): as above
Chain of Tau, brain-derived (P10636 other isoform, or with tags, fused parts or gaps): as the sequence (P10636 other isoform, or with tags, fused parts or gaps) above

As to CCGGTGGGGGACCAGTACAAAAGTGGGTAGGGCGGGTTGGAAAA (ssDNA, 3' amino) [Abeta aptamer Abeta7-92-1H1], the binding result in data set [1] and in data set [2] was “binds” throughout.

B1: alpha-synuclein aptamer F5R1 (ssDNA)
DNA: ATCGAGTGTGTACGGGGTCCGGTAGGGTGGCGAGGTCTTCCTGTCGTAGCAGGATCCA
modifications: 3' amino
Take B1: the binding result in data set [3] and in data set [4] was “binds” in each case.

B2: Tau aptamer IT2 (ssDNA)
DNA: CAGCACCGTCAACTGAATAAGGACTGCTTAGGATTGCGATGATTCAGGGTGATGCGATGGAGATGT
modifications: 3' amino
As to B2, the binding result with Tau, brain-derived is listed as “binds”; in data set [5] it was “binds”.
